This note sets out measurements from patent US20220056125A1 (CEPHALON, published 2022).

The target of one experiment is T1, human PAR-2 (human, UniProt P55085 26-397).
T1 sequence: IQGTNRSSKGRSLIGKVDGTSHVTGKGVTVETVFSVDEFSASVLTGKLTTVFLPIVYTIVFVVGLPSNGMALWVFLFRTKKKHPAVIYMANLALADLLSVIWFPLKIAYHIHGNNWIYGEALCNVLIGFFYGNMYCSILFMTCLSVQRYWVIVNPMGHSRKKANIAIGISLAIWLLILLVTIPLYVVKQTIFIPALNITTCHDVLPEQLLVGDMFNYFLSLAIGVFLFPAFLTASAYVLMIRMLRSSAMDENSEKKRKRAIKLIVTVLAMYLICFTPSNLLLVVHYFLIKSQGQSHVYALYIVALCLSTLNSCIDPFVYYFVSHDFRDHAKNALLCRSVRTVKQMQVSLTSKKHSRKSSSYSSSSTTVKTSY
Description: cell-based or functional assay.

The next experiment concerns the target T2, human PAR-1 (human, UniProt P25116 22-425).
T2 construct: also called huPAR-1
T2 sequence: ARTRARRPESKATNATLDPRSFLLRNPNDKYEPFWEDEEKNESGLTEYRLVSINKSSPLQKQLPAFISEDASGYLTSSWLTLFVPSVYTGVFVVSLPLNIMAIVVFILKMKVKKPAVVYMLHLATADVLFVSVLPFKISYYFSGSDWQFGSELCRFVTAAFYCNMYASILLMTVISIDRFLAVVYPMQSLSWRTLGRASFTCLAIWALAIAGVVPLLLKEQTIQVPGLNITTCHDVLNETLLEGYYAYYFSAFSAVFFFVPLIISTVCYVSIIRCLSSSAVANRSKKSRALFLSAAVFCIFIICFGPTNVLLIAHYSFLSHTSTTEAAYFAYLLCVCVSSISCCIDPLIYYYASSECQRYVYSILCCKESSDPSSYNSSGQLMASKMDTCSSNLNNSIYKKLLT
Description: flow cytometry, transfected Expi293F cells. The method, then: Paired heavy and light chains encoded by these sequence pairs were expressed as a full length human IgG4 isotype antibodies and assessed for PAR-2 binding and selectivity by flow cytometry. […] Cells were used for flow cytometric analysis 36-48 hours post-transfection. Use of Nt-PAR-2 as a target allowed antibodies which bound the N-terminal residues of PAR-2 (which comprise the protease-cleavage sites on PAR-2) to be distinguished from antibodies which bound other extracellular sites on PAR-2, such as the PAR-2-activating ligand-binding site(s). Expi293F cells, transiently expressing one of each of the different target proteins were labelled with different intensities of a single fluorphor Encoder dye (Intellicyt) for 10 mins at either 1 in 250 dilution for high intensity and/or 1 in 1500 dilution for moderate intensity, enabling simultaneous analysis of multiple cell populations. After washing the cells were then mixed in an equal ratio with the unlabeled cell type and analyzed for antibody binding.
The cells were plated in 96 well plates at 2×10⁵ cells/well. Following a wash step using Phosphate buffered saline (PBS), the primary antibody (anti-PAR-2 antibody) was added at a concentration of 10 μg/mL in 50 μL of FACS buffer (0.5% w/v BSA in PBS) to each well and incubated for 10-15 mins. Following a wash step, secondary antibody (anti-human Fc-FITC) was added to the wells at 1:200 dilution in 50 μL for 10-15 mins. Following a washing step, the cells were re-suspended in fluorescence-activated cell sorting (FACS) buffer. The flow cytometry analysis was performed on an Intellicyt iQue screener. Gates were drawn around the different intensities of encoder dye-positive cells and these populations were analyzed separately from each other and the unlabeled cells for binding by the primary antibody.
(Flow cytometry measures light scatter and fluorescence of single cells or particles in a stream.)

B1: Ab335 (antibody, human IgG4, V domains shown)
VH: QVQLKESGPGLVQPSQTLSLSCTVSGFSLSTYGVIWVRQPPGKGLEWMGVIWGNGNTNYNSALKSRLSISRDTSKSQVFLKMNNLQSEDTAMYFCGRWRGYKDYPFDYWGQGVKVTVSS
VL: DIQMTQSPSFLSASVGDRVTINCKASRNIYKYLDWYQQKLGEAPKLLIYNTNNLHTGIPSRFSGSGSGTDFTLTISSLQPEDVATYFCLQHNSGWTFGGGTKLELK
notes: also called Anti-PAR-2 antibody # 335
B1: in the experiment with human PAR-2, the “IC50, PAR-2 β-arrestin cell assay” value was 2.5 nM. Moreover, the binding result in the experiment with human PAR-1 is recorded as “no binding (tested: 10 µg/mL)”.

B2: Ab348 (antibody, human IgG4, V domains shown)
VH: QVQLKESGPGLVQPSQTLSLTCSVSGFSLSSYGVIWVRQPPGKGLEWMGVVWGNGNTAYNFTLKSRLTISRDTSKSQVFLKMNNLQTEDTAMYFCGRWRGFKDYPFDYWGQGVMVTVSS
VL: DIQMTQSPSFLSASVGDRVTINCKASQNIYKYLDWYQQKLGEAPKLLIYNTNSLHTGIPSRFSGSGSGTDFTLTISSLQPEDVATYFCLQHNSGWTFGGGTKLELK
notes: also called Anti-PAR-2 antibody # 348
On to B2, for which, in the experiment with human PAR-2, the “IC50, PAR-2 β-arrestin cell assay” value was 2.7 nM. In addition, in the experiment with human PAR-1, the binding result is on record as “no binding (tested: 10 µg/mL)”.

B3: Ab323 (antibody, human IgG4, V domains shown)
VH: QVQLKESGPGLVQPSQTLSLTCSVSGFSLSTYGIIWVRQPPGKGLEWMGVIWGNGNTHYNSALKSRLSITRDTSKSQVFLKMNNLQTEDTAMYFCGRWRGYKDYPFDYWGQGVMVTVSS
VL: DIQMTQSPSFLSASVGDRVTINCKASQNIYKYLDWYQQKLGEAPKLLMYNTNTLHTGIPSRFSGSGSGTDFTLTISSLQPEDVATYFCLQHNSGWTFGGGTKLELK
notes: also called Anti-PAR-2 antibody # 323
For B3, in the experiment with human PAR-2, the “IC50, PAR-2 β-arrestin cell assay” value came out at 2.1 nM. In addition, the binding result with human PAR-1 was “no binding (tested: 10 µg/mL)”.

B4: Ab311 (antibody, human IgG4, V domains shown)
VH: QVQLKESGPGLVQPSQTLSLSCTVSGFSLTTYGVIWVRQPPGKGLMWMGVIWGNGNTYYNSPLKSRLSISRDTSKSQVFLKMNNLQSEDTAMYFCGRWRGYKDYPFDYWGQGVKVTVSS
VL: DIQMTQSPSFLSASVGDRVTINCKASQNIYKYLDWYQQKLGEAPKLLIYNSNILHTGVPSRFSGSGSGTDFTLSISSLQPEDVATYFCLQHNSGWTFGGGSKLELR
notes: also called Anti-PAR-2 antibody # 311
On to B4, for which the “IC50, PAR-2 β-arrestin cell assay” value with human PAR-2 is 1.8 nM. In addition, in the experiment with human PAR-1, the binding result is listed as “no binding (tested: 10 µg/mL)”.

B5: Ab342 (antibody, human IgG4, V domains shown)
VH: QVQLKESGPGLVQPSQTLSLSCTVSGFSLNTYGVIWVRQPPGKGLDWMGVIWGNGNTYYDSALKSRLSISRDTSKSQIFLKMNNLQSEDTAMYFCGRWRGFKDYPFDYWGQGVKVTVSS
VL: DIQMTQTPSFLSASVGDRVTINCRASQNIYKYLDWYQLKLGEAPKLLIYNTNTLHTGIPSRFSGSGSGTDFTLTISSLQPEDVATYFCLQHNSGWAFGGGTKLELK
notes: also called Anti-PAR-2 antibody # 342
For B5, the “IC50, PAR-2 β-arrestin cell assay” value with human PAR-2 was 1.9 nM. Further, the binding result with human PAR-1 is “no binding (tested: 10 µg/mL)”.

B6: Ab343 (antibody, human IgG4, V domains shown)
VH: EVQLVESGGGLVQPGRSLKLSCVASGFTFNNYWMSWIRQAPGKGLEWVASITNTGGRIFYPDSVKGRFTISRDNAQNTLYLQMNSLRSEDAATYYCTRDRLYYGSNWFTYWGQGTLVTVSS
VL: DIQMTQSPHSLSASLGETVSIECLASEAISNYLAWYQQKPGKSPQLLIYYASSLKDGVPSRISGSGSGTQYSLKISNMQPEDEGVYYCQQGYKYPRTFGGGTKLELK
notes: also called Anti-PAR-2 antibody # 343
Regarding B6, the “IC50, PAR-2 β-arrestin cell assay” value with human PAR-2 stood at 18.2 nM. Moreover, the binding result in the experiment with human PAR-1 is on record as “no binding (tested: 10 µg/mL)”.

B7: Ab392 (antibody, human IgG4, V domains shown)
VH: EVQLVESGGGLVQPGRSLKLSCVASGFTFNNKWMTWIRQAPGKGLEWIASITNTGGRTFYPDSVKGRFTISRDDAKSTLYLQMNSLRSEDTATYYCTRATIRRGASYFDYWGQGVMVTVSS
VL: DIQMTQSPHSLSASLGEGVSIECLASEGISNYLAWFQQKPGKSPQLLIYYASSLQDGVPSRFSGSGSGTQYSLKISNMQPEDEGVYYCQQGYKYPWTFGGGTKLELK
notes: also called Anti-PAR-2 antibody # 392
For B7, in the experiment with human PAR-2, the “IC50, PAR-2 β-arrestin cell assay” value was determined as 13.7 nM. Further, the binding result with human PAR-1 is “no binding (tested: 10 µg/mL)”.

B8: Ab313 (antibody, human IgG4, V domains shown)
VH: EVQLKESGPGLVQPSQTLSLTCTVSGFSLTDYSVHWVRQPPGKGLEWMGVMWSGGSTSYNSPLKSRLSISRDTSKSQVFLKTNSLQTEDTAIYYCTRARPTVATLDYWGQGVMVTVSS
VL: DIQMTQSPSVLSASVGDRVILNCKASQKINKYLNWYQQKLGEAPKLLIYTTNNLQTGIPSRFSGSGSGTDFTLTISSLQPEDFATYFCFQHSSWPTFGAGTKLELK
notes: also called Anti-PAR-2 antibody # 313
As to B8, the “IC50, PAR-2 β-arrestin cell assay” value with human PAR-2 turned out to be 8.2 nM. Further, the binding result with human PAR-1 is “no binding (tested: 10 µg/mL)”.

B9: Ab86 (antibody, human IgG4, V domains shown)
VH: EVQLVESGGGLVQPKGSLKLSCAASGFTFNTYAMHWVRQAPGKGLEWVARIRSKNVHYATYYADSVKDRFTISRDDSQNMLYLQMNNLKTEDTAMYYCVREDYYGSSYDYWGQGTTLTVSS
VL: DIVMTQSHKFMSTSLGDRVSITCKASQDVGSAVAWHQQKPGQSPKVLIYWASNRHTGVPDRFTGSGSGTDFTLTISNVQSEDLADYFCQQYSSYPFTFGSGTKLEIK
notes: also called Anti-PAR-2 antibody # 86
Consider B9, for which the “IC50, PAR-2 β-arrestin cell assay” value with human PAR-2 is 9.9 nM. Further, the binding result with human PAR-1 is reported as “no binding (tested: 10 µg/mL)”.

B10: Ab303 (antibody, human IgG4, V domains shown)
VH: QVTLKESGPGILQPSHTLSLTCSFSGFSLSTYGMGVSWIRQPSGKGLEWLASIWWNGNTYNNPSLKSRLTVSKDTSNNQAFLKVTSVDTADTATYYCAHTPNLGNWFAYWGQGTLVTVSS
VL: DIQMTQSPSFLSASVGERVTLSCKTSQKINRYLDWYQQKLGEAPKLLIYNTNNLHTGIPSRFSGSGSGTDYTLTISSLQPEDVATYFCLQHSSWPTFGAGTKLELK
notes: also called Anti-PAR-2 antibody # 303
For the molecule B10, the “IC50, PAR-2 β-arrestin cell assay” value in the experiment with human PAR-2 amounted to 9 nM. For the same molecule, the binding result in the experiment with human PAR-1 was “no binding (tested: 10 µg/mL)”.

B11: Ab360 (antibody, human IgG4, V domains shown)
VH: EVQLVESGGGLVQPGRSLKLSCVASGFTFNNYWMTWIRQAPGKGLEWVASITNTGGSTYYPDSVKGRFTISRDNAKSTLYLQMNSLRSEDTATYYCTREGIRGTGWFAYWGQGTLVTVSS
VL: DTVLTQSPALAVSPGERVTISCRASESVRTRMHWYQQRPGQQPKLLIYGASNPESGVPARFSGSGSGTDFTLTIDPVEADDSATYFCHQSWNEYTFGAGTKLELK
notes: also called Anti-PAR-2 antibody # 360
Consider B11, for which the “IC50, PAR-2 β-arrestin cell assay” value with human PAR-2 is 16 nM. In addition, the binding result with human PAR-1 is on record as “no binding (tested: 10 µg/mL)”.

B12: Ab245 (antibody, human IgG4, V domains shown)
VH: QVQLKESGPGLVQPSQTLFLTCTVSGFSLTSYHVSWVRQPPGKGLEWMGIIWTGGSTAYNSLLKPRLTISRDTSKSQVFLKMNSLRTEDTATYYCARRGLYPFYFDYWGQGVMVTVSS
VL: EVVLTQSPTTMAASPGEKVTITCRATSSVSHMYWYQQKSGASPKPWIYETSKLASGVPDRFRGSGSGTSYSFTISSMETEDVATYYCHQWSSFPYTFGPGTKLELK
notes: also called Anti-PAR-2 antibody # 245
Turning to B12, the “IC50, PAR-2 β-arrestin cell assay” value with human PAR-2 turned out to be 3.8 nM. Further, in the experiment with human PAR-1, the binding result is “no binding (tested: 10 µg/mL)”.

B13: Ab248 (antibody, human IgG4, V domains shown)
VH: QVQLKESGPGLVQPSQTLSLTCTVSGFSLTNYHVSWVRQPPGKGLEWMGIIWTGGSTAYNSLLKSRLSISRDTSKSQVFLKMNSLQTEDTATYYCARRGLYPYYFDYWGQGVMVTVSS
VL: EIVLTQSPTTLAASPGEKVTITCRASSRVSNMYWYQQKSGASPKAWIYETSKLASGVPDRFSGSGSGTSYSFTISSMETEDAATYYCHQWTSTPYTFGAGTKLELK
notes: also called Anti-PAR-2 antibody # 248
Regarding B13, the “IC50, PAR-2 β-arrestin cell assay” value with human PAR-2 amounted to 4.6 nM. Also, in the experiment with human PAR-1, the binding result is “no binding (tested: 10 µg/mL)”.

B14: Ab5 (antibody, human IgG4, V domains shown)
VH: QVQLQQPGSELVKPGASVKLSCKASGYTFTNYWMHWVKQRPGQGLEWIGMIHPNSDFSNYNEKFKKKATLTVDKSSSTAYMQLSSLTSEDSAVYFCAKGPNYYGSRYWYFDVWGTGTTVTVSS
VL: DIVLTQSPTSLAVSLGQRATISCRASESVDSYGNSFLHWYQQKAGQPPKLLIYRTSNLESGIPARFSGSGSRTDFTLTINPVEADDVATYFCQQSNEDPYTFGGGTKLELK
notes: also called Anti-PAR-2 antibody # 5
Regarding B14, the “IC50, PAR-2 β-arrestin cell assay” value with human PAR-2 worked out at 23.1 nM. The binding result in the experiment with human PAR-1 is recorded as “no binding (tested: 10 µg/mL)”.
